Measured values taken from patent US20140087991A1, “PEPTIDE PRODRUGS” (The Johns Hopkins University, priority 2006, published 2014).
Each block holds one compound with its values, some of them ahead of it. Ends that are not written are not given here. Peptide text beside a SMILES is read from it.

Experiments:
[1] = target: T1, FAP (Homo sapiens, UniProt Q12884); assay: FAP dipeptidyl peptidase assay; type: biochemical
T1 construct: the extracellular domain of FAP was cloned with a His-6 tag; made in house
T1 sequence (Q12884 26-760 limits assumed): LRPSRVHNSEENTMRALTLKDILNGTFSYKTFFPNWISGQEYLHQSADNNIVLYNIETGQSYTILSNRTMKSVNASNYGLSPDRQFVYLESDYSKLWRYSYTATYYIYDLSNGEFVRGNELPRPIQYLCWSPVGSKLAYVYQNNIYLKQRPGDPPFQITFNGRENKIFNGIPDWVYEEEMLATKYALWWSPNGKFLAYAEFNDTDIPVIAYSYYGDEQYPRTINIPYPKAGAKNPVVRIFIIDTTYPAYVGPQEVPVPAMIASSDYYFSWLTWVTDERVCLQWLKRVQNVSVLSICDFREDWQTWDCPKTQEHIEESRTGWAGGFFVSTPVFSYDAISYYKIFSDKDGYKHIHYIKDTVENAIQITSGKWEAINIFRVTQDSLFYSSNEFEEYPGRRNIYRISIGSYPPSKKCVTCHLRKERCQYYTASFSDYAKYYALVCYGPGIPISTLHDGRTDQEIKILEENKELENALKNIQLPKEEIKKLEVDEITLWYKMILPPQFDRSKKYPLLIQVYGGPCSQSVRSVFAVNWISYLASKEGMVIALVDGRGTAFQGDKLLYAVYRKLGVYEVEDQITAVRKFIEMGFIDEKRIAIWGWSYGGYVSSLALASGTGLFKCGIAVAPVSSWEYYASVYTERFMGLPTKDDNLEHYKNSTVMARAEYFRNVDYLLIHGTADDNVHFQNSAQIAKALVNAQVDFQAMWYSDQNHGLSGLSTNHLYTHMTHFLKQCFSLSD
Method: Quantitative assay for dipeptidyl peptidase activity were developed using Ala-Pro-AFC as the substrate as described by Park et al^18. Purified protein was mixed with 5-10-fold volumes of reaction buffer (100 mM NaCl, 100 mM Tris, pH 7.8), and added to an equal volume of 0.5 mM Ala-Pro-AFC in reaction buffer followed by incubation for 1 h at 37° C. Release of free AFC was measured in a DTX 880 Multimode Detector (Beckman, Fullerton, Calif.) using the 395 nm excitation/530 nm emission filter set.

[2] = system: all cell lines tested; assay: Cytotoxicity, average IC50 over cell lines; type: cell-based
[3] = target: T1, FAP; assay: FAP gelatinase and collagenase assay with quenched (DQ) proteins; type: biochemical; settings: 100 μgs/ml protein substrate
Method: Quenched gelatin and collagen conjugates were used to detect and confirm FAP's gelatinase and collagenase activity. DQ™ Gelatin from pig skin, DQ™ collagen, type IV from human placenta, DQ™ collagen, type I from bovine skin, all as fluorescent conjugates (Invitrogen, Rockville, Md.) were digested with FAP and digestion monitored on a fluorescence plate reader. Protein substrates were dissolved in reaction buffer (100 mM NaCl, 100 mM Tris, pH 7.8) to a final concentration of 100 μgs/ml. Trypsin digestion was used as a positive control. As a negative control the His tagged extra cellular domain of Prostate Specific Membrane Antigen (PSMA), which was similarly purified from S2 cells under the same conditions as FAP. Fluorescent quenched DQ™ Bovine Serum Albumin was used as a negative control for FAP protease activity.
Quenched forms of Gelatin and Collagen were used to confirm the gelatinase and collagenase activity of recombinant FAP. Quenching is achieved by labeling these proteins with the fluorophore FITC such that fluorescence signal from the intact protein is minimal due to is self-quenching by the fluorphore. Protein digestion releases FITC-labeled fragments that result in measurable increase in overall fluorescence signal from the reaction mixture. […] On a relative basis gelatin was digested ˜10-fold better by FAP than collagen I. MALDI analysis of digested fragments was performed to confirm hydrolysis.

[4] = target: T2, FAP (Homo sapiens, UniProt Q12884); settings: previously demonstrated; cited from earlier work
T2 sequence (Q12884 1-760): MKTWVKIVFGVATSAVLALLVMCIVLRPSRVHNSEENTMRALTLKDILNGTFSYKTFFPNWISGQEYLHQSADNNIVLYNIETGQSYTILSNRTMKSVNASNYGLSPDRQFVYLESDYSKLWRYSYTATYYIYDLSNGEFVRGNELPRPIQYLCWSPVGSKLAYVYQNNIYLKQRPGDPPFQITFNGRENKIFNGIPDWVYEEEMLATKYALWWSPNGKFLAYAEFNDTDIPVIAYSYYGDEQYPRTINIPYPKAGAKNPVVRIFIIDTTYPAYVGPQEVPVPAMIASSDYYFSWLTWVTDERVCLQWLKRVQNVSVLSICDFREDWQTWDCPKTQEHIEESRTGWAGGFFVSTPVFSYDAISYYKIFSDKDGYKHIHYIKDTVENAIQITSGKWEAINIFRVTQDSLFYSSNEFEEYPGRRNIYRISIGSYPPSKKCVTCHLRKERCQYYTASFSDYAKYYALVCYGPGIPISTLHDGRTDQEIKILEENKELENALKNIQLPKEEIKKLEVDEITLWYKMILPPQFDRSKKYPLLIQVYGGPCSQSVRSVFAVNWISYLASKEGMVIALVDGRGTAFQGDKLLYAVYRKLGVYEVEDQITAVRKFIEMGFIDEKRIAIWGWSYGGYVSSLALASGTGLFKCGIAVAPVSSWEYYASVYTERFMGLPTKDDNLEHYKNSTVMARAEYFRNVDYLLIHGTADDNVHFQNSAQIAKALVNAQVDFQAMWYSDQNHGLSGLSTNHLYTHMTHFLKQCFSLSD

[5] = target: T3, His-tagged FAP (Homo sapiens, UniProt Q12884); assay: FAP hydrolysis of MCA/DNP fluorescence quenched peptide substrates; type: biochemical
T3 construct: the extracellular domain of FAP was cloned with a His-6 tag; made in house
T3 sequence (Q12884 26-760 limits assumed): T1 sequence (Q12884 26-760 limits assumed)
Method: Quenched substrates were prepared by using the MCA/DNP fluorophore/quencher pair. Synthesis of peptides was done using standard Fmoc solid phase coupling on NovaTag™ Dnp resin with a substitution level of 0.4 mmole/g (Novabiochem, San Diego, Calif.). N-terminal capping was done twice overnight with N-(7-methoxycoumarin-4-acetyloxy)succinimide (MCA-Osu) and 1-Hydroxybenzotriazole (HOBt) in N-Methyl 2 Pyrrolidone (NMP). Peptides were cleaved with 95% TFA, 2.5% TIS and 2.5% water. The purity and mass of each quenched peptide was confirmed by Reversed Phase-HPLC and MALDI-TOF analysis.
Quenched peptide substrates were weighed and dissolved in DMSO to obtain a final concentration of 50 mM and were stored at −20° C. until later use. Dilutions (e.g. 200 μM, 100 μM, 50 μM, 25 μM) were prepared in duplicates in the reaction buffer. His-tagged FAP was added to a final concentration of 5 nM. Release of free MCA was measured at excitation 355 nm and emission 460 nm in a 96-well fluorescence plate reader. Controls consisted of substrates in buffer±BSA.
On the basis of the 8.5 kDa gelatin cleavage map a series of fluorescence quenched substrates were prepared (colored sequences in Table 3) by using the Methoxycoumarin (MCA)/Dinitrophenyl (DNP) FRET combination (52). […]

[6] = system: FAP-transfected MDA-MB-231 cells; assay: Hydrolysis of quenched peptides by FAP-transfected MDA-MB-231 cells; type: cell-based, human; settings: 50 μM in serum containing media
Text: Human breast cancer cell lines MCF-7 and MDA-MB-231 were selected for transfection because the cells were negative for FAP when grown under standard culture conditions (25). Details of transfection methodology are described in methods section of Specific Aim 2 below. Briefly, a 2.2 kb PCR fragment was purified by gel electrophoresis, digested with NheI and cloned into bicistronic pIRES vector (kindly provided by Dr. Ben Park, The Johns Hopkins University) previously digested with Nhe 1. Final construct was designated as pFAPIRES. Sequencing primers were designed for the entire length of the gene and were confirmed to be correct. The cells were transfected using Fugene 6 (Roche). Control transfections were done on the same lines with the empty IRES vector. Cells were characterized for production of FAP by Flow Cytometry (FIG. 17A-FIG. 17D).
(§1) Subsequently, one of the MDA-MB-231 clones was used to evaluate FAP activity in vitro. In this assay cells were grown in serum containing media to 70% confluency followed by addition of fluorescence quenched peptides into the media at concentration of 50 μM. As a control cell lines transfected with the carboxypeptidase PSMA using the same vector system were used. Cells were incubated with three different FAP substrates, FIG. 18.

[7] = system: control cells transfected with PSMA; assay: Hydrolysis of quenched peptides by control cells transfected with PSMA; type: cell-based, human; settings: 50 μM
Method: as §1

[8] = target: T1, FAP; assay: Digestion of human collagen I and recombinant gelatins with FAP (SDS-PAGE, MALDI); type: biochemical; settings: SDS PAGE and MALDI spectra
Method: Human collagen I (Becton Dickinson, Franklin Lakes, N.J.) and recombinant human gelatins of 100 KDa and 8.5 KDa (Fibrogen, San Francisco, Calif.) were dissolved in reaction buffer to a final concentration of 100-300 μg/ml. 0.5-1 μg of FAP was added per 100 μgs of protein substrate. Digestion was done for 4-6 hrs at 37° C. As a positive control trypsin digestion was used. As a negative control, protein solutions were incubated either with BSA or buffer only. Peptide fragments of a size <30 KDa were purified using 30 KDa Microcon spin filter (Millipore, Billerica, Mass.).
In an effort to elucidate the substrate specificity of FAP, we examined FAP digests of unlabeled human Collagen I using matrix assisted laser desorption ionization (MALDI) time of flight mass spectrometry. Digestion reactions were performed at a substrate to protease mass ratio of 200:1 using recombinant FAP or modified trypsin as a control. Two negative controls of Collagen alone and FAP alone were also included to identify any peptides due to autolysis/degradation of these proteins. […]
As Collagen I and Gelatin are currently the only known protein substrates for FAP, we developed an alternative method to identify FAP-selective cleavage sites within these proteins. […] The masses of fragments <3 KDa were purified for MALDI spectra and again analyzed using the FindPept tool. […]

Compound: C[C@H](N)C(=O)N1CCC[C@H]1C(=O)Nc1ccc2c(C(F)(F)F)cc(=O)oc2c1 [Ala-Pro-AFC] (HELM PEPTIDE1{A.P.[O=c1cc(C(F)(F)F)c2ccc(N[*:1])cc2o1]}$$$$V2.0)
cleavage of dipeptide substrate by purified FAP [1]: same kinetic parameters as previously described

Compound: CC(=O)O[C@H]1C(=O)[C@@]2(C)[C@H]([C@H](OC(=O)c3ccccc3)[C@]3(O)C[C@H](OC(=O)[C@H](O)[C@@H](NC(=O)c4ccccc4)c4ccccc4)C(C)=C1C3(C)C)[C@]1(OC(C)=O)CO[C@@H]1C[C@@H]2O [paclitaxel]
IC50 [2]: 10 nM

Compound: C/C=C(/C)C(=O)O[C@H]1C(C)=C2[C@H]([C@@H]1OC(=O)CCCCCCC)[C@@](C)(OC(C)=O)C[C@H](OC(=O)CCC)[C@@]1(O)[C@H]2OC(=O)[C@@]1(C)O [thapsigargin]
IC50 [2]: 0.1 nM

Compound: fibronectin
cleavage by FAP [4]: not

Further lines, with some results ahead:

hydrolysis of FITC-quenched protein by FAP [3]: readily hydrolyzed
Compound: Collagen I: FITC-quenched DQ collagen I from bovine skin; in b297 Collagen I of the cited literature
cleavage by FAP [4]: could cleave

hydrolysis of FITC-quenched protein by FAP [3]: not all digested
Compound: Collagen IV: FITC-quenched DQ collagen IV from human placenta; in b297 Collagen IV of the cited literature
cleavage by FAP [4]: not

Km ([5]; FAP hydrolysis of quenched substrate, Michaelis Menten): ~50 µM
hydrolysis by FAP ([5]; substrate at 25 μM): rapidly hydrolyzed
Compound: VGPAGK (also: MCA/DNP quench labels) [tested as MCA/DNP fluorescence quenched substrate]
hydrolysis by FAP-positive cells [6]: appreciably hydrolyzed
hydrolysis by control media [7]: relatively stable to hydrolysis

digestion by FAP [8]: cleaved by FAP at certain specific sites
Compound: human Collagen I: unlabeled human collagen I (Becton Dickinson)
